# Measurements reported in EP1340979A2, “Neuropeptide receptor and uses thereof” (Pfizer Limited, priority 2002, dated 2003).
# Where a SMILES comes first, the peptide text is derived from it. Bridges are numbered along the chain shown (N, C = ends). [ ]: non-standard residue; d: D form. The star is where a group is joined. d2Nal = N[C@H](Cc1ccc2ccccc2c1)C(=O)O; Nle = CCCC[C@H](N)C(=O)O; Ahp = NCCCCCCC(=O)O; Bn = c1ccc(C*)cc1
# Target: MC4 receptor (Homo sapiens, UniProt P32245)
# Assay: not given
# Conditions: cited from earlier work
# Chain of MC4 receptor (P32245 whole entry): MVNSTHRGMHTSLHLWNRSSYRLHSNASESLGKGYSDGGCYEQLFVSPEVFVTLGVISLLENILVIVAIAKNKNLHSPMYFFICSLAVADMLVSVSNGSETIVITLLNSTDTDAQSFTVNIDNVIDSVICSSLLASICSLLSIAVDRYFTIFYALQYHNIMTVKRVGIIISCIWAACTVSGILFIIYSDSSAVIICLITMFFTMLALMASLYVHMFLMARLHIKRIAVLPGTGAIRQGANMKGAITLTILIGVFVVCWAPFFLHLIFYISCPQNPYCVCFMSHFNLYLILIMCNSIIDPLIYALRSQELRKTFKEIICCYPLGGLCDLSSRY
row,Compound,Ki [nM]
1,"CCCC[C@@H]1NC(=O)[C@@H](NC(C)=O)CSSC[C@@H](C(N)=O)NC(=O)CNC(=O)[C@H](Cc2c[nH]c3ccccc23)NC(=O)[C@H](CCCNC(=N)N)NC(=O)[C@@H](Cc2ccc3ccccc3c2)NC(=O)[C@H](Cc2c[nH]cn2)NC(=O)[C@H](CCCNC(=N)N)NC1=O [HS024, (Acetyl-Cys^3,Nle^4,Arg^5,D-2-Nal^7,Cys^11)-a-MSH (3-11) amide] (Ac-C[Nle]RH[d2Nal]RWGC-NH2; disulfide 1-9 (inferred))",0.29

# System: SNSR3
# Assay: not given
# Conditions: SNSR3 (MRGX1); cited from earlier work
row,Compound,EC50 [nM]
1,Bovine adrenal medulla peptide 22 [BAM 22],13

# Target: receptor MRGX2 (human) (UniProt Q96LB1)
# Assay: cell-based or functional assay
# Conditions: not given
row,Compound,"EC50 (µM), intracellular calcium mobilisation (FLIPR) [µM]"
1,Apelin 13 (from UniProt Q9ULZ1 65-77) (peptide),> 10
2,Cyclosomatostatin (peptide),1.47
3,D-Trp-Somatostatin (from UniProt P61278 103-116) (peptide),0.179
4,"HS024 (Acetyl-Cys^3,Nle^4,Arg^5,D-2-Nal^7,Cys^11)-α-MSH (3-11) amide (from UniProt P01189 140-148) (peptide)",0.42
5,NPAF (from UniProt O15130 93-110) (peptide),> 10
6,NPSF (peptide),> 10
7,Octreotide (peptide),> 10
8,Somatostatin 14 (from UniProt P61278 89-116) (peptide),0.78

# Now from value to compound:
row,"EC50 (µM), intracellular calcium mobilisation (FLIPR) [µM]",Compound
1,> 10,"(Deamino-Cysl,D-Orn^8) Vasopressin (from UniProt P01185 20-28) (peptide)"
2,7.4,"(Ser^4, Ile^8)-Oxytocin (from UniProt P01178 20-28) (peptide)"
3,0.1,BAM 13-22 (from UniProt P01211 37-46) (peptide)
4,1.85,Dynorphin A (from UniProt P01213 207-219) (peptide)
5,> 10,HS014 (peptide)
6,9.5,Hexarelin (peptide)
7,0.251,N9642 (β-(2-Naphthyl)-D-Ala-Cys-Tyr-D-Trp-Lys-Val-Cys-Thr amide [Disulfide Bridge: 2-7] (sst2R agonist)) (peptide)
8,> 10,NPVF (from UniProt Q9HCQ7 124-131) (peptide)
9,> 10,Nociceptin (from UniProt Q13519 130-146) (peptide)
10,1.47,Oxytocin (from UniProt P01178 20-28) (peptide)

# Target: five known SST receptors
# Assay: not given
# Conditions: range over the five known SST receptors; cited from earlier work
row,Compound,EC50 [nM]
1,"Cortistatin (PCKNFFWKTFSSCK) [CST, cyclic peptide derived from a prepropeptide of 114 residues in man]",0.25 to 0.9

# Target: T1, receptor MRGX2 (Homo sapiens, UniProt Q96LB1)
# T1 sequence (Q96LB1 1-330): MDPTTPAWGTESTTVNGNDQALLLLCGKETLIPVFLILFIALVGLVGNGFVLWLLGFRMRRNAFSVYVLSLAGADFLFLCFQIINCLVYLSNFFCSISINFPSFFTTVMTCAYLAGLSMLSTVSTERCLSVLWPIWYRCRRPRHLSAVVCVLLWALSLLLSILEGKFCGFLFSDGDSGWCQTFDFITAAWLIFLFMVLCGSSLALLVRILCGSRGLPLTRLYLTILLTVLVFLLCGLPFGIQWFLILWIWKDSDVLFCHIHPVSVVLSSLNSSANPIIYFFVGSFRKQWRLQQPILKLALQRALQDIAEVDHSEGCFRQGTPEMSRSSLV
# Assay: Functional assay measuring intracellular calcium mobilisation (FLIPR)
# Type: cell-based
# Parameters: expressed in transfected cells; host or cells: host cell line, e.g. HEK293 or CHO-K1, engineered to stably express Gα15 / Gqi-5
# Conditions: Preliminary EC50 data for receptor MRGX2; transiently transfected host cells expressing Gα15 / Gqi-5, Fluo3 fluorescence
# Description: 5 x 10^6 cells of a suitable host cell line, chosen to express a low number of endogenous receptors (e.g. HEK293 or CHO-K1) and engineered to stably express Gα15 / Gqi-5, were transiently transfected with 7.5 µg of cDNA encoding receptor MRGX2 in a suitable mammalian cell expression vector, or vector alone, using Lipofectamine Plus® reagent (Gibco BRL) as per the manufacturer's protocol. If the cells were intended for a ligand binding assay or microphysiometry, they were incubated for 24-72 hours post transfection, and then harvested. […]
# Fluorescence Imaging Plate Reader (FLIPR®) technology was employed as a means to detect activation of receptor MRGX2 by various potential GPCR agonists.
# Cells were transfected as described in Example 3. […] The FLIPR® processing involved reading the fluorescence for all samples for 2 minutes; during this time the fluorescence baseline was determined for 10 seconds. The desired amount of compounds (i.e. potential GPCR agonists) was then automatically transferred to the wells and the fluorescence was continuously monitored for the remainder of the time. […]
# Compounds capable of acting as agonists for the receptor were identified by them causing a transient rise in fluorescence, and therefore in intracellular calcium, in the cells.
row,Compound,EC50
1,Nc1ncnc2nc[nH]c12 [Adenine],No response

# Target: T1, receptor MRGX2
# Assay: as above
# Type: cell-based
# Parameters: expressed in transfected cells; host or cells: e.g. HEK293 or CHO-K1 engineered to stably express Galpha15 / Gqi-5
# Conditions: not given
row,Compound,EC50 [nM]
1,CSCC[C@H](NC(=O)[C@@H]1CCCN1C(=O)CNC(=O)[C@H](CCCCN)NC(=O)[C@H](Cc1cnc[nH]1)NC(=O)[C@H](CO)NC(=O)[C@H](CC(C)C)NC(=O)[C@H](CCCNC(=N)N)NC(=O)[C@@H]1CCCN1C(=O)[C@H](CCCNC(=N)N)NC(=O)[C@@H](N)CCC(N)=O)C(=O)N1CCC[C@H]1C(=O)N[C@@H](Cc1ccccc1)C(=O)O [Apelin 13],> 10000

# Same assay, conditions: Preliminary EC50 data for receptor MRGX2; transiently transfected host cells expressing Gα15 / Gqi-5, Fluo3 fluorescence; read-out: EC50
row,Compound,EC50 [nM]
1,C[C@@H](OCc1ccccc1)[C@@H]1NC(=O)[C@H](CCCCN)NC(=O)[C@@H](Cc2c[nH]c3ccccc23)NC(=O)[C@H](Cc2ccccc2)NC(=O)CCCCCCNC1=O [Cyclosomatostatin] (cyclo([Ahp]F[dW]KT(Bn)); ring closure inferred),1470
2,C[C@H](N)C(=O)NCC(=O)N[C@H]1CSSC[C@@H](C(=O)O)NC(=O)[C@H](CO)NC(=O)[C@H]([C@@H](C)O)NC(=O)[C@H](Cc2ccccc2)NC(=O)[C@H]([C@@H](C)O)NC(=O)[C@H](CCCCN)NC(=O)[C@@H](Cc2c[nH]c3ccccc23)NC(=O)[C@H](Cc2ccccc2)NC(=O)[C@H](Cc2ccccc2)NC(=O)[C@H](CC(N)=O)NC(=O)[C@H](CCCCN)NC1=O [D-Trp-Somatostatin],179
3,"CC(C)[C@@H]1NC(=O)[C@H](CCCCN)NC(=O)[C@@H](Cc2c[nH]c3ccccc23)NC(=O)[C@H](Cc2ccc(O)cc2)NC(=O)[C@@H](NC(=O)[C@H](N)Cc2ccc3ccccc3c2)CSSC[C@@H](C(=O)N[C@H](C(N)=O)[C@@H](C)O)NC1=O [Peptide N9642, β-(2-Naphthyl)-D-Ala-Cys-Tyr-D-Trp-Lys-Val-Cys-Thr amide [Disulfide Bridge: 2-7]]",251

# The next lines start with the values.
row,EC50 [nM],Compound
1,7400,"CC[C@H](C)[C@@H]1NC(=O)[C@H](Cc2ccc(O)cc2)NC(=O)[C@@H](N)CSSC[C@@H](C(=O)N2CCC[C@H]2C(=O)N[C@H](C(=O)NCC(N)=O)[C@@H](C)CC)NC(=O)[C@H](CC(N)=O)NC(=O)[C@H](CO)NC1=O [(Ser^4, Ile^8)-Oxytocin] (H-CYISNCPIG-NH2; disulfide 1-6)"
2,> 10000,CC(C)C[C@H](NC(=O)[C@H](CC(N)=O)NC(=O)[C@@H]1CCCN1C(=O)[C@@H](N)C(C)C)C(=O)N1CCC[C@H]1C(=O)N[C@@H](CCC(N)=O)C(=O)N[C@@H](CCCNC(=N)N)C(=O)N[C@@H](Cc1ccccc1)C(N)=O [NPVF]
3,1470,CC[C@H](C)[C@@H]1NC(=O)[C@H](Cc2ccc(O)cc2)NC(=O)[C@@H](N)CSSC[C@@H](C(=O)N2CCC[C@H]2C(=O)N[C@@H](CC(C)C)C(=O)NCC(N)=O)NC(=O)[C@H](CC(N)=O)NC(=O)[C@H](CCC(N)=O)NC1=O [Oxytocin]

# Same assay, conditions: at a concentration of 1µM
row,response of the MRGX2 receptor,Compound
1,responds,α-MSH
2,responds,γ-MSH

# System: not given
# Assay: not given
# Conditions: i.c.v. administration, free feeding rats, maximal response at 1nmol dose; cited from earlier work
row,Compound,food intake
1,"CCCC[C@@H]1NC(=O)[C@@H](NC(C)=O)CSSC[C@@H](C(N)=O)NC(=O)CNC(=O)[C@H](Cc2c[nH]c3ccccc23)NC(=O)[C@H](CCCNC(=N)N)NC(=O)[C@@H](Cc2ccc3ccccc3c2)NC(=O)[C@H](Cc2c[nH]cn2)NC(=O)[C@H](CCCNC(=N)N)NC1=O [HS024, (Acetyl-Cys^3,Nle^4,Arg^5,D-2-Nal^7,Cys^11)-a-MSH (3-11) amide] (Ac-C[Nle]RH[d2Nal]RWGC-NH2; disulfide 1-9 (inferred))",dose dependant increase in food intake
